Results: US20240270851A1 (US Dept. of Health and Human Services, published 2024)
Values belong to the binder of their own block, whether it stands above or below them.

Key:
[1] = target: T1, mouse PD-L1-His (mouse, UniProt Q9EP73 19-237); experiment: monoclonal phage ELISA
T1 construct: Bought recombinant protein; also called mPD-L1; recombinant mouse PD-L1-His; not shown: His tag

[2] = target: T2, mouse PD-L1 on murine melanoma cell line B8979HC (mouse, UniProt Q9EP73 19-290); experiment: flow cytometry on murine melanoma cells B8979HC (column 'Mouse')
T2 construct: whole, on cells; also called native PD-L1; mouse antigen
T2 sequence (Q9EP73 19-290): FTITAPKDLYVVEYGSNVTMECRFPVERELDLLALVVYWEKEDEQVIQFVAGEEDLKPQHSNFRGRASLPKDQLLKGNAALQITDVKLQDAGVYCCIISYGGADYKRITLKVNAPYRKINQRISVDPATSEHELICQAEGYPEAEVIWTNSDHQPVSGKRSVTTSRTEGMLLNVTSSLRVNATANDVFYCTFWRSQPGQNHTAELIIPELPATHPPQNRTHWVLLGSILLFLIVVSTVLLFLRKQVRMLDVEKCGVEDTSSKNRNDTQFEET

[3] = target: T3, human B7-H3 (human, UniProt Q5ZPR3 29-461, limits assumed); experiment: ELISA on coated human B7-H3
T3 sequence (looked up): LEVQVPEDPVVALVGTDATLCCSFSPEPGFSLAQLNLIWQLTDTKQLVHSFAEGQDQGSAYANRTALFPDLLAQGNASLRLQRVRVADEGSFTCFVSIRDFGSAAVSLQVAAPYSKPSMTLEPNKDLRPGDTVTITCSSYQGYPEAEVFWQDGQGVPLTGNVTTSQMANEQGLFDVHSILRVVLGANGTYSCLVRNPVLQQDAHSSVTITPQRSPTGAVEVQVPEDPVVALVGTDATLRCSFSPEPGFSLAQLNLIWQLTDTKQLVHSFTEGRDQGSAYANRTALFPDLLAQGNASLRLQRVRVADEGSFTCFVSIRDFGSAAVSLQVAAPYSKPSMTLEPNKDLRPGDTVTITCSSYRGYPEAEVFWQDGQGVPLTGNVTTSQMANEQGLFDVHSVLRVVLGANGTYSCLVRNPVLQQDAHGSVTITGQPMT

[4] = target: T1, mouse PD-L1-His; experiment: monoclonal phage ELISA on coated antigen, detected with anti-M13-HRP
Procedure: (§1) The phage ELISA was performed as previously described (Feng et al., Antib Ther 2019; 2(1):1-11). Briefly, a Nunc 96-well Maxisorp plate was coated with 5 μg/ml antigenic proteins, including mouse PD-L1-His, mouse PD-L1-hFc, human PD-L1-His, human PD-L1-hFc, and the irrelevant antigen human IgG and PBS in 50 μl PBS per well overnight at 4° C. The plate was blocked with 2% BSA in PBS for 1 hour at room temperature. Pre-blocked phage supernatant was then added into the plate. The binding activity was determined with a horseradish peroxidase (HRP)-conjugated mouse anti-M13 antibody (GE Healthcare).

[5] = target: T4, mouse PD-L1-hFc (mouse, UniProt Q9EP73 19-237, limits assumed); experiment: as above
T4 construct: also called mPD-L1 hFc-tag format; not shown: human Fc tag (hFc)
T4 sequence (Q9EP73 19-237 limits assumed): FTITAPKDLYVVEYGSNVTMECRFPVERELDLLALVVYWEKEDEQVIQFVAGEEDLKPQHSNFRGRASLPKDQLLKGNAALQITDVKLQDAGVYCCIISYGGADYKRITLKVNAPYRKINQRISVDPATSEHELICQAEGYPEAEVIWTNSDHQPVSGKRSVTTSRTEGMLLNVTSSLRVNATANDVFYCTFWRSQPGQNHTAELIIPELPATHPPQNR
Procedure: as §1

[6] = target: T5, human PD-L1-His (human, UniProt Q9NZQ7 19-238); experiment: BLI (Octet), VNAR-hFc with hPD-L1-His, Ni-NTA sensor; at 50 nM; at a concentration of 50 nM
T5 construct: also called hPD-L1-His; hPD-L1 His-tag format; not shown: His tag
T5 sequence (Q9NZQ7 19-238 limits assumed): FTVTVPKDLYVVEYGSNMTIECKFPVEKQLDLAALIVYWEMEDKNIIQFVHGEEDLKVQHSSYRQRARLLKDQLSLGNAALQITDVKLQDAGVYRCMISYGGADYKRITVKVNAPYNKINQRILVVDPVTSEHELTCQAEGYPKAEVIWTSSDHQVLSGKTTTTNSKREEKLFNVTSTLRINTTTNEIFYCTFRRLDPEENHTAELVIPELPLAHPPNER

[7] = target: T5, human PD-L1-His; experiment: BLI (Octet), VNAR-hFc with hPD-L1-His, Ni-NTA sensor; at 100 nM; at a concentration of 100 nM (printed '100 nm')
[8] = target: T6, peptide #19 of the hPD-L1 ECD peptide array (human); experiment: peptide-scanning ELISA on 24 coated hPD-L1 ECD peptides, detected with anti-flag-HRP
T6 construct: 18-mer synthetic peptide from human PD-L1
T6 peptide: TTNSKREEKLFNVTSTLR
Procedure: To predict the binding epitope of anti-PD-L1 nanobodies, a total of 24 peptides were designed based on the hPD-L1 ECD amino acid sequence. Each synthesized peptide is 18 amino acids in length with 9 amino acids of overlap, which allows the minimum antigenic region of hPD-L1 ECD recognized by each VNAR to be narrowed down by step-by-step peptide mapping onto a 9-mer peptide epitope. The ELISA was performed as previously described. In brief, the 24 peptides were coated into individual wells of a 96-well Maxisorp plate. […] The binding activity was determined by ODA450.

[9] = target: T7, human PD-L1 on MDA-MB-231 cells (human, UniProt Q9NZQ7 19-290); experiment: flow cytometry on MDA-MB-231 cells (column 'Human')
T7 construct: whole, on cells; also called native PD-L1; human antigen
T7 sequence (Q9NZQ7 19-290): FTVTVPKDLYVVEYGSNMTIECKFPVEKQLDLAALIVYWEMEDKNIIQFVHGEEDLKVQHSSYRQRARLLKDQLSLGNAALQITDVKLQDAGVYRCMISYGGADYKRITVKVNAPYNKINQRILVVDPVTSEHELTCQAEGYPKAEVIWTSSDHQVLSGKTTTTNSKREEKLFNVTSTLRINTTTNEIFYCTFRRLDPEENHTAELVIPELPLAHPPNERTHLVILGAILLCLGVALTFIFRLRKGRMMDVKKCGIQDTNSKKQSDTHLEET

[10] = target: T8, human PD-L1-hFc (human, UniProt Q9NZQ7 19-238); experiment: monoclonal phage ELISA on coated antigen, detected with anti-M13-HRP
T8 construct: also called hPD-L1 hFc-tag format; not shown: human Fc tag (hFc)
T8 sequence (Q9NZQ7 19-238 limits assumed): as the sequence (Q9NZQ7 19-238 limits assumed) above
Procedure: as §1

[11] = target: T5, human PD-L1-His; experiment: as above
Procedure: as §1

[12] = target: T9, human PD-L1 (hPD-L1) protein (human, UniProt Q9NZQ7 19-238); experiment: BLI (Octet), PD-L1 protein loaded on a Ni-NTA biosensor, VNAR binding step
T9 construct: also called hPD-L1 ECD
T9 sequence (Q9NZQ7 19-238 limits assumed): as above

T1 sequence (Q9EP73 19-237 limits assumed): as the sequence (Q9EP73 19-237 limits assumed) above

binding result [1]: binds
B2: Shark VNAR A7 (VNAR)
VNAR: ARVDQTPRSVTKETGESLTINCVLRDTSYALGSTYWYRKKLGSTNEESISKGGRYVETVNSGSKSFSLRINDLTVEDSGTYRCKMNQRYPCDNNSWWSLYCGTTVYGGGTVVTVN

binding result [1]: binds
B4: Shark VNAR A9 (VNAR)
VNAR: ARVDQTPQTITKETGESLTINCVLRDTNYALGSTYWYRKKLGSTNEESISKGGRYVETVNSGSKSFSLRINDLTVEDSGTYRCKNTSPWLTYSPWTVSGQTSYGGGTVVTVN

Kd [6]: 1.4 nM
Kd [7]: 1.7 nM
B6: B2-hFc (Fc fusion)
chain: ARVDQTPRSVTKETGESLTINCVLRDSSYALGSTYWYRKKSGSTNEESISKGGRYVETVNSGSKSFSLRINDLTVEDSGTYRCKYTSRLRREGPLSWDGNTVYGGGTVVTVN
notes: also called B2 VNAR-hFc fusion protein; not shown: human Fc (hFc)

binding result [1]: binds
B8: Shark VNAR A1 (VNAR)
VNAR: ARVDQTPRSVTKETGESLTINCVLRDTNYALGSTYWYRKKSGSTNEESISKGGRYVETVNSGSKSFSLRINDLTVEDSGTYRCKTSSKPLLVSHNVWSAWTEYGGGTVVTVN

binding result [2]: binds
binding result [9]: binds
binding result [10]: binds
binding result [4]: binds
binding result [5]: binds
binding result [11]: binds
B9: Shark VNAR F5 (VNAR)
VNAR: ARVDQTPRSVTKETGESLTINCVLRDTNYALGSTYWYRKKLGSTNEESISKGGRYVETVNSGSKSFSLRINDLTVEDSGTYRCKNLGHPMYIAGAICRPLPIYGGGTVVTVN
notes: Shark VNAR single-domain antibody

binding result [1]: binds
B12: Shark VNAR C4 (VNAR)
VNAR: ARVDQTPRSVTKETGESLTINCVLRDTNYALGSTYWYRKKSGSTNEESISKGGRYVETVNSGSKSFSLRINDLTVEDSGTYRCKQSASLWIPNLLRWVPVISYGGGTVVTVN

binding result [1]: binds
B13: Shark VNAR A3 (VNAR)
VNAR: ARVDQTPQTITKETGESLTINCVLRDSNYALGSTYWYRKKSGSTNEESISKGGRYVETVNSGSKSFSLRINDLTVEDSGTYRCKTQKAIPCNMNGYVCGVTIYGGGTVVTVN

binding result [4]: binds
binding result [5]: binds
B14: Shark VNAR A11 (VNAR)
VNAR: ARVDQTPRSVTKETGESLTINCVLRDTSYALGSTYWYRKKSGSTNEESISKGGRYVETVNSGSKSFSLRINDLTVEDSGTYRCKFKSNTEFLNPLTVSMSTIYGGGTVVTVN
notes: as for B9

binding result [1]: binds
B17: Shark VNAR A10 (VNAR)
VNAR: ARVDQTPRSVTKETGESLTINCVLRDTNYALGSTYWYRKKLGSTNEESISKGGRYVETVNSGSKSFSLRINDLTVEDSGTYRCKSTTPWNNLTSFTSERVTIYGGGTVVTVN

Further lines, the binder ahead of its results:

B1: Shark VNAR A2 (VNAR)
VNAR: ARVDQTPRSVTKETGESLTINCVLRDTSYALGSTYWYRKKLGSTNEESISKGGRYVETVNSGSKTFSLRINDLTVEDSGTYRCKVQTTWSYLSPYKIEFATVYGGGTVVTVN
binding result [1]: binds

B3: Shark VNAR D12 (VNAR)
VNAR: ARVDQTPRSVTKETGESLTINCVLRDTNYALGSTYWYRKKSGSTNEESISKGGRYVETVNSGSKSFSLRINDLTVEDSGTYRCKHQSSWRRQAPRVMEMQTLYGGGTVVTVN
binding result [1]: binds

B5: Shark VNAR B2 (VNAR)
VNAR: ARVDQTPRSVTKETGESLTINCVLRDSSYALGSTYWYRKKSGSTNEESISKGGRYVETVNSGSKSFSLRINDLTVEDSGTYRCKYTSRLRREGPLSWDGNTVYGGGTVVTVN
notes: Shark VNAR single-domain antibody from the semi-synthetic 18AA CDR3 library; also called B2 nanobody; B2 clone
binding result [2]: binds
binding result [3]: no binding
binding result [4]: binds
binding result [5]: binds

B7: B2-His-flag (VNAR)
VNAR: ARVDQTPRSVTKETGESLTINCVLRDSSYALGSTYWYRKKSGSTNEESISKGGRYVETVNSGSKSFSLRINDLTVEDSGTYRCKYTSRLRREGPLSWDGNTVYGGGTVVTVN
notes: Soluble VNAR B2 with His and flag tags, used at 5 ug/ml in the peptide-scanning ELISA; also called nanobody B2 (peptide scanning); not shown: His tag and flag tag
binding result [8]: binds

B10: F5-hFc (Fc fusion)
chain: ARVDQTPRSVTKETGESLTINCVLRDTNYALGSTYWYRKKLGSTNEESISKGGRYVETVNSGSKSFSLRINDLTVEDSGTYRCKNLGHPMYIAGAICRPLPIYGGGTVVTVN
notes: VNAR-hFc fusion used on the Octet; also called F5 VNAR-hFc fusion protein; not shown: human Fc (hFc)
binding result [12]: binds

B11: F5-His-flag (VNAR)
VNAR: ARVDQTPRSVTKETGESLTINCVLRDTNYALGSTYWYRKKLGSTNEESISKGGRYVETVNSGSKSFSLRINDLTVEDSGTYRCKNLGHPMYIAGAICRPLPIYGGGTVVTVN
notes: Soluble VNAR F5 with His and flag tags, used at 5 ug/ml in the peptide-scanning ELISA; also called nanobody F5 (peptide scanning); not shown: His tag and flag tag
binding result [8]: binds

B15: A11-His-flag (VNAR)
VNAR: ARVDQTPRSVTKETGESLTINCVLRDTSYALGSTYWYRKKSGSTNEESISKGGRYVETVNSGSKSFSLRINDLTVEDSGTYRCKFKSNTEFLNPLTVSMSTIYGGGTVVTVN
notes: Soluble VNAR A11 with His and flag tags, used at 5 ug/ml in the peptide-scanning ELISA; also called nanobody A11 (peptide scanning); not shown: His tag and flag tag
binding result [8]: no binding (tested: 5 µg/ml)

B16: Shark VNAR A6 (VNAR)
VNAR: ARVDQTPQTITKETGESLTINCVLRDTSYALGSTYWYRKKSGSTNEESISKGGRYVETVNSGSKSFSLRINDLRVEDSGTYRCKYSSSWQKATEGVWEAMTEYGGGTVVTVN
binding result [1]: binds
